Measured values published in the supplement of paper PMC10567573.
± gives the standard deviation.

Test: protein stability index of a GFP-peptide fusion (GPS, HEK-293T) (PSI 1-6); higher = more stable
Conditions: c terminus: a fixed tail appended
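Also: 24-mer peptide tiles fused after GFP, lentivirally expressed, FACS-sorted into six equal bins by GFP/DsRed ratio, decoded by Illumina sequencing, PSI is the read-weighted mean bin number.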

Row | Sequence | protein stability index (treatment: DMSO) | protein stability index (treatment: MLN4924 1 uM, 8 h)
1 | MSFPHFGHPYRGASQFLASASSST [IRX6] | 3.25 ± 0.21 | 3.13 ± 0.25
2 | MSIMGNVLRFLPAFVRMKQLIEEG [GFOD1] | 2.31 ± 0.43 | 2.42 ± 0.28
3 | MSTFRQEDVEDHYEMGEELGSGQF [DAPK3] | 5.43 ± 0.22 | 5.33 ± 0.48
4 | MSVILSMDNNRNLDLDSIIDEVRT [KRT71] | 2.61 ± 0.22 | 2.52 ± 0.59
5 | MTLAANHELMLRFKDEYKSENIKL [CCDC89] | 3.44 ± 0.17 | 3.72 ± 0.25
6 | MTTDFDLSLDNSPLLQSIHQLDFV [TRIM9] | 2.7 ± 0.33 | 2.71 ± 0.24
7 | MTVEKEAPDAHFTVDKQNISLWPR [CD207] | 3.58 ± 0.36 | 3.86 ± 0.5
8 | MVANILNNEAFMNQEITKAFHVRR [RHOBTB2] | 2.53 ± 0.27 | 2.5 ± 0.27
9 | MVGLILGPFGINHGIELHSDVVEY [PCMTD1] | 2.68 ± 0.65 | 2.85 ± 0.52
10 | MVGPLAQDPQSPMAGLRWLDSWDF [POMT2] | 2.66 ± 0.42 | 2.75 ± 0.41
11 | MVRRLKMVVKTFMDMDQDSEEEKE [PDS5B] | 2.73 ± 0.38 | 3.13 ± 0.26
12 | MYASSAPPSEPVPSLEDISCNTWP [TBX5] | 3.95 ± 0.17 | 3.97 ± 0.22
13 | NCKRERDARVKRKLRGPEPAATEA [TBX6] | 4.84 ± 0.42 | 4.66 ± 0.22
14 | NCPEFPPPDRTLGCWATDAAPAAG [RSPH3] | 4.4 ± 0.4 | 4.47 ± 0.3
15 | NCRLSEGDVMHLSQSPSVSQLSVL [PRAME] | 2.29 ± 0.63 | 2.37 ± 0.065
16 | NEDEDLGPCEGPSKEDKDLDSSEG [SPANXN3] | 5.66 ± 0.21 | 5.54 ± 0.17
17 | NEKIYELRVMETKPDKAVSIIECD [UFD1] | 4.33 ± 0.11 | 4.28 ± 0.16
18 | NEPSQAETAVEGDPSGVSGATVGR [C18orf25] | 5.66 ± 0.22 | 5.66 ± 0.11
19 | NESMKAYHNSPAYLAYINAKSRAE [SMARCE1] | 4.42 ± 0.27 | 4.26 ± 0.49
20 | NEYVAIKLEPIKSRAPQLHLEYRF [CSNK1G1] | 2.31 ± 0.3 | 2.53 ± 0.36
21 | NFPQCVLEISDQEVLEWYTAKDFI [EFHC1] | 2.51 ± 0.33 | 2.6 ± 0.45
22 | NGEARQLPEDDGLEQDLQQVMVSG [ARFIP2] | 5.36 ± 0.22 | 5.49 ± 0.2
23 | NHAIDIICGFLKERCFRGSSYPVC [OAS1] | 2.88 ± 0.38 | 2.6 ± 0.44

Row | Sequence | protein stability index (treatment: DMSO) | protein stability index (treatment: MLN4924 1 uM, 8 h)
24 | NICENTEGAIAVHCKAGLGRTGTL [CDC14A] | 3.13 ± 0.22 | 3.21 ± 0.3
25 | NIPGNSTLITAVELERFVNLHSLA [FBXO33] | 2.27 ± 0.24 | 2.23 ± 0.37
26 | NIVEYLIQEQPGQEQVAGGEAQPG [FEM1A] | 4.33 ± 0.25 | 4.15 ± 0.47
27 | NIYYYLEDDSMSVIEPVVENSGIL [EFHC1] | 2.45 ± 0.43 | 2.41 ± 0.42
28 | NKAAVMVHQLSKKEASRHAIMRSP [CTNNB1] | 3.86 ± 0.16 | 3.8 ± 0.2
29 | NKLLLSIIILLELAILGGLVYYKF [VTI1B] | 2.96 ± 0.57 | 2.84 ± 0.49
30 | NLHRVAAHELGHSLGLSHSTDIGA [MMP1] | 3.48 ± 0.33 | 3.57 ± 0.33
31 | NLLSPLLTGTESPFDLEQQWQDLM [NFE2L1] | 3.12 ± 0.21 | 3.17 ± 0.041
32 | NMHLNLRPFDCPVCNKKFKMKHHL [ZBTB22] | 2.4 ± 0.2 | 2.81 ± 0.35
33 | NMSKEDAMVEFVKLLNRCCHLFST [ACBD3] | 2.24 ± 0.16 | 2.29 ± 0.39
34 | NNLEPILEGYISNLRKQLETLSGD [KRT71] | 3.07 ± 0.26 | 3.18 ± 0.35
35 | NQNRAYVTLAAHFLGLGAPNCLSM [ZBED1] | 3.07 ± 0.95 | 3.08 ± 0.59
36 | NSTSVKKKSSRNIFSIVFVFFVCF [P2RY14] | 2 ± 0.64 | 
37 | NSWMGSQGPMSQRRENYGVPPRRA [RBMY1A1] | 4.65 ± 0.26 | 4.28 ± 0.16
38 | NTRGTGSSSSGVLMVGPNFRVGKK [CSNK1G3] | 4.48 ± 0.2 | 4.51 ± 0.18
39 | NVIDRMKESSPSGSKSQRYSGAYG [CHCHD3] | 4.13 ± 0.4 | 4.13 ± 0.15
40 | PAEQAFWCLVQICEKYLPGYYSEK [TBC1D10A] | 3.37 ± 0.55 | 3.46 ± 0.48
41 | PAFIIVKLSPLRDRLVVTECQLTH [ZSWIM9] | 3.33 ± 0.57 | 3.02 ± 0.54
42 | PAHKNLNKQAYDLAKALLKRTAQA [PDS5B] | 2.22 ± 0.16 | 2.51 ± 0.18
43 | PAISITENVLHFKAQGHGAKGDNV [HACD3] | 4.54 ± 0.095 | 4.57 ± 0.37
44 | PAKAANRTPPKSPGDPSKDRAAKR [TPPP] | 5.22 ± 0.38 | 5.21 ± 0.32
45 | PAPKSTYECRCIGEEKEMWNFGEK [TIA1] | 3.86 ± 0.23 | 3.85 ± 0.33
